Reference: publication PMC4324353 (2014)
Blank lines part the entries; values can stand above or below the binder they belong to.

Target: actin (Oryctolagus cuniculus, UniProt P68135)

Kd: 10 nM
B1: Spire Sc3d WH2 c-Linker 3-WH2 d (second actin at Sc) (protein)
chain: KKDAHAMILEFIRSRPPLKKASDRQLGPPRMCEPSPREQLMESIRKGKELKQITPPEA

Kd: 30 nM
B2: Spire Sc3d WH2 c-Linker 3-WH2 d (second actin at Sd) (protein)
chain: B1 chain
